Source: patent US20240117334

Biological target: Human Factor B
Sequence (chain, as listed by the source): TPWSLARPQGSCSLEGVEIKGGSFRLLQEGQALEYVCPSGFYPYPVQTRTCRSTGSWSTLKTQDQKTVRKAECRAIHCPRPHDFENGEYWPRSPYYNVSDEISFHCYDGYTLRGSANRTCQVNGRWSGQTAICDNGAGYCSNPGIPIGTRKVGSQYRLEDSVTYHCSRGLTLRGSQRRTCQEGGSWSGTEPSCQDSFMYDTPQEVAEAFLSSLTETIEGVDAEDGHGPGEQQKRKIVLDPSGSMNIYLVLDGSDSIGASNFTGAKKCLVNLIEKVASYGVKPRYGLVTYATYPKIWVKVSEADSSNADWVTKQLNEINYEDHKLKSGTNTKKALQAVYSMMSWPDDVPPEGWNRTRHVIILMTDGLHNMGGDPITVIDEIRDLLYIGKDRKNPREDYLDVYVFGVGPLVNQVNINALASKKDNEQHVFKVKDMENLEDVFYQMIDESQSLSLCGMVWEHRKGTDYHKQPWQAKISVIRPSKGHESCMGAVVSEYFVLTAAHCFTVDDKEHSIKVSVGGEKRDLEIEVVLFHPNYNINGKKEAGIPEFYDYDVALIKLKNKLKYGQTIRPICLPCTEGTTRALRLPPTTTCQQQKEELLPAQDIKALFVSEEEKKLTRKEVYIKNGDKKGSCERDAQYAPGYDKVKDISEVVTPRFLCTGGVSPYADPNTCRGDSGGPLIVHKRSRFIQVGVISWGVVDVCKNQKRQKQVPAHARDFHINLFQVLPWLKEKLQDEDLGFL

Row | Protein | Factor B cleavage, Coomassie gel | other results
1 | MTSP-1 F97E/K224N/F99L/D217I/C122S/C[17]S/C[19]S (protein) VVGGTDADEGEWPWQVSLHALGQGHICGASLISPNWLVSAAHCYIDDRGFRYSDPTQWTAFLGLHDQSQRSAPGVQERRLKRIISHPFFNDETLDYDIALLELEKPAEYSSMVRPISLPDASHVFPAGKAIWVTGWGHTQYGGTGALILQKGEIRVINQTTCENLLPQQITPRMMCVGFLSGGVDSCQGDSGGPLSSVEADGRIFQAGVVSWGIGCAQRNNPGVYTRLPLFRDWIKENTGV | – | Factor B add-back hemolysis: is able to inhibit hemolysis
2 | chymase C22S/K40L/F41K/L99N/F173Y/D175N/S218L/A226R (protein) IIGGTESKPHSRPYMAYLEIVTSNGPSLKCGGFLIRRNFVLTAAHCAGRSITVTLGAHNITEEEDTWQKLEVIKQFRHPKYNTSTNHHDIMLLKLKEKASLTLAVGTLPFPSQFNFVPPGRMCRVAGWGRTGVLKPGSDTLQEVKLRLMDPQACSHYRNFDHNLQLCVGNPRKTKSAFKGDSGGPLLCAGVAQGIVSYGRLDAKPPRVFTRISHYRPWINQILQAN | each lot showed the ability of the engineered proteases to cleave Factor B | –
3 | chymase C22S/P38Q/K40M/F41R/D175N/V213Q/S218V/A226R/F228A (protein) IIGGTESKPHSRPYMAYLEIVTSNGQSMRCGGFLIRRNFVLTAAHCAGRSITVTLGAHNITEEEDTWQKLEVIKQFRHPKYNTSTLHHDIMLLKLKEKASLTLAVGTLPFPSQFNFVPPGRMCRVAGWGRTGVLKPGSDTLQEVKLRLMDPQACSHFRNFDHNLQLCVGNPRKTKSAFKGDSGGPLLCAGVAQGIQSYGRVDAKPPRVATRISHYRPWINQILQAN | each lot showed the ability of the engineered proteases to cleave Factor B | –
4 | chymase C22S/P38Q/K40M/F41R/V138I/F173Y/D175R/A190S/V213A/S218V/A226R (protein) IIGGTESKPHSRPYMAYLEIVTSNGQSMRCGGFLIRRNFVLTAAHCAGRSITVTLGAHNITEEEDTWQKLEVIKQFRHPKYNTSTLHHDIMLLKLKEKASLTLAVGTLPFPSQFNFVPPGRMCRIAGWGRTGVLKPGSDTLQEVKLRLMDPQACSHYRRFDHNLQLCVGNPRKTKSSFKGDSGGPLLCAGVAQGIASYGRVDAKPPRVFTRISHYRPWINQILQAN | – | Factor B cleavage: show high Factor B cleavage activity
5 | chymase C22S/P38Q/K40L/F41R/V138I/F173Y/D175N/A190S/V213A/S218V/A226R (protein) IIGGTESKPHSRPYMAYLEIVTSNGQSLRCGGFLIRRNFVLTAAHCAGRSITVTLGAHNITEEEDTWQKLEVIKQFRHPKYNTSTLHHDIMLLKLKEKASLTLAVGTLPFPSQFNFVPPGRMCRIAGWGRTGVLKPGSDTLQEVKLRLMDPQACSHYRNFDHNLQLCVGNPRKTKSSFKGDSGGPLLCAGVAQGIASYGRVDAKPPRVFTRISHYRPWINQILQAN | – | Factor B cleavage: show high Factor B cleavage activity
6 | chymase C22S/P38Q/K40M/F41R/L99M/F173Y/D175N/V213Q/S218V/A226R/F228A (protein) IIGGTESKPHSRPYMAYLEIVTSNGQSMRCGGFLIRRNFVLTAAHCAGRSITVTLGAHNITEEEDTWQKLEVIKQFRHPKYNTSTMHHDIMLLKLKEKASLTLAVGTLPFPSQFNFVPPGRMCRVAGWGRTGVLKPGSDTLQEVKLRLMDPQACSHYRNFDHNLQLCVGNPRKTKSAFKGDSGGPLLCAGVAQGIQSYGRVDAKPPRVATRISHYRPWINQILQAN | each lot showed the ability of the engineered proteases to cleave Factor B | –
7 | chymase C22S/P38Q/K40L/F41R/L99H/V138I/F173Y/D175S/A190S/V213A/S218I/A226R (protein) IIGGTESKPHSRPYMAYLEIVTSNGQSLRCGGFLIRRNFVLTAAHCAGRSITVTLGAHNITEEEDTWQKLEVIKQFRHPKYNTSTHHHDIMLLKLKEKASLTLAVGTLPFPSQFNFVPPGRMCRIAGWGRTGVLKPGSDTLQEVKLRLMDPQACSHYRSFDHNLQLCVGNPRKTKSSFKGDSGGPLLCAGVAQGIASYGRIDAKPPRVFTRISHYRPWINQILQAN | each lot showed the ability of the engineered proteases to cleave Factor B | –
